Data taken from the supplement of paper PMC10567573.

B1: IQUB (parent)
chain: EADYEDDSKIAFLMQLQDIQYLTE
B2: DUSP5 (parent)
chain: YSEYPECCVDVKPISQEKIESERA

Variants of: B1
Experiment: protein stability index of a GFP-peptide fusion (GPS, HEK-293T) (PSI 1-6); higher = more stable
Details: c terminus: a fixed tail appended
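Also: lentivirally expressed fusions sorted by FACS into six bins by GFP to DsRed ratio, PSI derived from sequencing read proportions per bin multiplied by bin number.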

Point of comparison: EADYEDDSKIAFLMQLQDIQYLTI [E24I], protein stability index 1.67. Against it:
- EADYEDDSKIAFLMQLQDIQYLTC [E24C] — higher, 2.33
- EADYEDDSKIAFLMQLQDIQYLTD [E24D] — higher, 3.32
- EADYEDDSKIAFLMQLQDIQYLTF [E24F] — higher, 1.92
- EADYEDDSKIAFLMQLQDIQYLTG [E24G] — higher, 2.89
- EADYEDDSKIAFLMQLQDIQYLTH [E24H] — higher, 2.48
- EADYEDDSKIAFLMQLQDIQYLTK [E24K] — higher, 2.73
- EADYEDDSKIAFLMQLQDIQYLTL [E24L] — lower, 1.56
- EADYEDDSKIAFLMQLQDIQYLTM [E24M] — higher, 1.86
- EADYEDDSKIAFLMQLQDIQYLTN [E24N] — higher, 2.61
- EADYEDDSKIAFLMQLQDIQYLTP [E24P] — higher, 3.29
- EADYEDDSKIAFLMQLQDIQYLTQ [E24Q] — higher, 2.72
- EADYEDDSKIAFLMQLQDIQYLTR [E24R] — higher, 2.07
- EADYEDDSKIAFLMQLQDIQYLTS [E24S] — higher, 2.71
- EADYEDDSKIAFLMQLQDIQYLTT [E24T] — higher, 2.54
- EADYEDDSKIAFLMQLQDIQYLTV [E24V] — higher, 1.81
- EADYEDDSKIAFLMQLQDIQYLTW [E24W] — higher, 2.45
- EADYEDDSKIAFLMQLQDIQYLTY [E24Y] — higher, 2.36

Variants of: B2
Experiment: as above
Details: c terminus: a fixed tail appended

Point of comparison: TSEYPECCVDVKPISQEKIESERA [Y1T], protein stability index 5.23. Against it:
- ASEYPECCVDVKPISQEKIESERA [Y1A] — higher, 5.74
- CSEYPECCVDVKPISQEKIESERA [Y1C] — lower, 5.2
- DSEYPECCVDVKPISQEKIESERA [Y1D] — higher, 5.29
- ESEYPECCVDVKPISQEKIESERA [Y1E] — higher, 5.86
- FSEYPECCVDVKPISQEKIESERA [Y1F] — lower, 4.12
- GSEYPECCVDVKPISQEKIESERA [Y1G] — lower, 5.21
- HSEYPECCVDVKPISQEKIESERA [Y1H] — lower, 5.21
- ISEYPECCVDVKPISQEKIESERA [Y1I] — lower, 4.87
- KSEYPECCVDVKPISQEKIESERA [Y1K] — higher, 5.36
- LSEYPECCVDVKPISQEKIESERA [Y1L] — higher, 5.5
- MSEYPECCVDVKPISQEKIESERA [Y1M] — lower, 5
- NSEYPECCVDVKPISQEKIESERA [Y1N] — higher, 5.6
- PSEYPECCVDVKPISQEKIESERA [Y1P] — lower, 4.94
- QSEYPECCVDVKPISQEKIESERA [Y1Q] — higher, 5.33
- RSEYPECCVDVKPISQEKIESERA [Y1R] — higher, 5.62
- SSEYPECCVDVKPISQEKIESERA [Y1S] — higher, 5.75
- VSEYPECCVDVKPISQEKIESERA [Y1V] — higher, 5.31
- WSEYPECCVDVKPISQEKIESERA [Y1W] — lower, 5.1
- YAEYPECCVDVKPISQEKIESERA [S2A] — lower, 3.48
- YCEYPECCVDVKPISQEKIESERA [S2C] — lower, 2.29
- YDEYPECCVDVKPISQEKIESERA [S2D] — higher, 5.29
- YEEYPECCVDVKPISQEKIESERA [S2E] — higher, 5.79
- YFEYPECCVDVKPISQEKIESERA [S2F] — lower, 4.11
- YGEYPECCVDVKPISQEKIESERA [S2G] — lower, 5.11
- YHEYPECCVDVKPISQEKIESERA [S2H] — lower, 2.13
- YIEYPECCVDVKPISQEKIESERA [S2I] — lower, 1.92
- YKEYPECCVDVKPISQEKIESERA [S2K] — higher, 5.35
- YLEYPECCVDVKPISQEKIESERA [S2L] — lower, 3.67
- YMEYPECCVDVKPISQEKIESERA [S2M] — lower, 4.28
- YNEYPECCVDVKPISQEKIESERA [S2N] — higher, 5.31
- YPEYPECCVDVKPISQEKIESERA [S2P] — lower, 4.88
- YQEYPECCVDVKPISQEKIESERA [S2Q] — lower, 4.29
- YREYPECCVDVKPISQEKIESERA [S2R] — higher, 5.49
- YTEYPECCVDVKPISQEKIESERA [S2T] — lower, 2.62
- YVEYPECCVDVKPISQEKIESERA [S2V] — lower, 2.53
- YWEYPECCVDVKPISQEKIESERA [S2W] — lower, 4.44
- YYEYPECCVDVKPISQEKIESERA [S2Y] — lower, 4.93
- YSAYPECCVDVKPISQEKIESERA [E3A] — lower, 4.55
- YSCYPECCVDVKPISQEKIESERA [E3C] — lower, 3.53
- YSDYPECCVDVKPISQEKIESERA [E3D] — higher, 5.39
- YSFYPECCVDVKPISQEKIESERA [E3F] — lower, 4.66
- YSGYPECCVDVKPISQEKIESERA [E3G] — lower, 4.27
- YSHYPECCVDVKPISQEKIESERA [E3H] — lower, 4.49
- YSIYPECCVDVKPISQEKIESERA [E3I] — lower, 4.17
- YSKYPECCVDVKPISQEKIESERA [E3K] — lower, 4.53
- YSLYPECCVDVKPISQEKIESERA [E3L] — lower, 4.24
- YSMYPECCVDVKPISQEKIESERA [E3M] — lower, 4.7
- YSNYPECCVDVKPISQEKIESERA [E3N] — lower, 4.62
- YSPYPECCVDVKPISQEKIESERA [E3P] — lower, 4.56
- YSQYPECCVDVKPISQEKIESERA [E3Q] — lower, 4.36
- YSRYPECCVDVKPISQEKIESERA [E3R] — lower, 4.17
- YSSYPECCVDVKPISQEKIESERA [E3S] — lower, 3.95
- YSTYPECCVDVKPISQEKIESERA [E3T] — lower, 4.67
- YSYYPECCVDVKPISQEKIESERA [E3Y] — lower, 4.24
- YSEAPECCVDVKPISQEKIESERA [Y4A] — higher, 5.66
- YSEDPECCVDVKPISQEKIESERA [Y4D] — higher, 5.67
- YSEEPECCVDVKPISQEKIESERA [Y4E] — higher, 5.93
- YSEFPECCVDVKPISQEKIESERA [Y4F] — lower, 4.06
- YSEGPECCVDVKPISQEKIESERA [Y4G] — higher, 5.77
- YSEHPECCVDVKPISQEKIESERA [Y4H] — lower, 5.02
- YSEIPECCVDVKPISQEKIESERA [Y4I] — higher, 5.75
- YSEKPECCVDVKPISQEKIESERA [Y4K] — higher, 5.62
- YSELPECCVDVKPISQEKIESERA [Y4L] — higher, 5.71
- YSEMPECCVDVKPISQEKIESERA [Y4M] — lower, 4.6
- YSEPPECCVDVKPISQEKIESERA [Y4P] — higher, 5.53
- YSEQPECCVDVKPISQEKIESERA [Y4Q] — higher, 5.34
- YSERPECCVDVKPISQEKIESERA [Y4R] — higher, 5.52
- YSESPECCVDVKPISQEKIESERA [Y4S] — lower, 5.19
- YSETPECCVDVKPISQEKIESERA [Y4T] — higher, 5.77
- YSEVPECCVDVKPISQEKIESERA [Y4V] — higher, 5.67
- YSEWPECCVDVKPISQEKIESERA [Y4W] — lower, 1.72
- YSEYAECCVDVKPISQEKIESERA [P5A] — lower, 4.47
- YSEYCECCVDVKPISQEKIESERA [P5C] — lower, 4.34
- YSEYDECCVDVKPISQEKIESERA [P5D] — higher, 5.42
- YSEYFECCVDVKPISQEKIESERA [P5F] — lower, 3.18
